Consider 1 molecule from paper PMC11648230 (2024).

This experiment addresses Aquifex aeolicus TsaD2B^mut2 tetramer (Aquifex aeolicus | Thermotoga maritima, UniProt O66986 1-335). The experiment in a line: ITC. (In ITC the heat of successive injections is recorded.)

Sequence of Aquifex aeolicus TsaD2B^mut2 tetramer (O66986 whole entry, chain 1 of 2): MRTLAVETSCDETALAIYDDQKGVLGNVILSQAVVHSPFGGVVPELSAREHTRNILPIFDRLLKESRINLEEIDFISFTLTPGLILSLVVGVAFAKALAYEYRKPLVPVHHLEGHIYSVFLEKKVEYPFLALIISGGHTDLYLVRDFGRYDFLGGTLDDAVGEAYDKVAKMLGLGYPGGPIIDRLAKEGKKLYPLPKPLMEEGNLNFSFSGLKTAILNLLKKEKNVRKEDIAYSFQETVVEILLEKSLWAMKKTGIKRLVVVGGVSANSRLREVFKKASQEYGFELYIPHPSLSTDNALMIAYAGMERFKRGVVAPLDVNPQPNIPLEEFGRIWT
Sequence of Aquifex aeolicus TsaD2B^mut2 tetramer (chain, as listed by the source, chain 2 of 2): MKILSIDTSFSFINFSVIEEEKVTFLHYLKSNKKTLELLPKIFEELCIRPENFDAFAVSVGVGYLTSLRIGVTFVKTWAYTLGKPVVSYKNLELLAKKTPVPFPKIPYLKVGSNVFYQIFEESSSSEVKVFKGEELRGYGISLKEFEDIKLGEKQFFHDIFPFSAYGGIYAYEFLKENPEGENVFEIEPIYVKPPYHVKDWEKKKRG

B1: Aquifex aeolicus TsaE (enzyme)
chain: MELLKEVILESEEDTYKLAEEIAQLLKGSEVICLRGTLGAGKTTFVKALAKALKVKNPSAVRSPTFTLVNEYETDKGKLIHIDLYRVPDFDYSEFIGEGILAVEWEERDKPCDIILEIEILDENKRKVRIYRK
modifications: T. maritima TsaB C-tail WEKKKRG (200-206) grafted after residue 200 of A. aeolicus TsaB (new positions 201-207); C-terminal 6His tag on TsaB omitted; TsaD carries a bound divalent metal (Fe2+ or Zn2+); Cys10 of TsaD seen oxidised (CSO) in the crystal; ITC with TsaE done with AMPPNP/Mg2+
As usually defined, the Kd is the equilibrium constant for the complex coming apart. A high value points to a looser complex. In turn, B1 registered a Kd of 2870 nM.
